Measured values: the Human Domainome abundance scans (Beltran et al. 2025)
± gives the uncertainty stated by the source.

B1: Ankyrin-2, residues 3571 to 3650; numbered along this chain, Q01484 (parent)
chain: ERLAYIADHLGFSWTELARELDFTEEQIHQIRIENPNSLQDQSHALLKYWLERDGKHATDTNLVECLTKINRMDIVHLME

Variants of: B1
Assay: abundance fitness (aPCA) (normalised: wild type 0, dead -1); higher = more abundant; growth selection in yeast, the domain comes from the species named
Conditions: Homo sapiens

Variant	abundance fitness
K48V	-0.076 ± 0.092
K48D	-0.062 ± 0.17
K48A	-0.063 ± 0.062
K48Y	-0.093 ± 0.12
K48H	-0.015 ± 0.12
D60M	0.019 ± 0.11
D60G	-0.115 ± 0.044
D60Q	-0.018 ± 0.075
D60I	-0.104 ± 0.12
D60T	-0.016 ± 0.11
D60L	-0.022 ± 0.059
D60A	-0.07 ± 0.071
D60E	-0.041 ± 0.08
D60H	-0.286 ± 0.16
D60W	-0.067 ± 0.049
D60N	-0.375 ± 0.2
D60Y	-0.151 ± 0.13
D60F	0.074 ± 0.093
D60C	-0.043 ± 0.098
D60S	-0.105 ± 0.05
D60K	-0.092 ± 0.12
D60P	-0.069 ± 0.058
D60R	-0.082 ± 0.049
D54Q	-0.111 ± 0.11

Variant	abundance fitness
D54E	-0.02 ± 0.13
D54F	0.01 ± 0.12
D54T	0.018 ± 0.095
D54S	-0.095 ± 0.045
D54M	-0.013 ± 0.1
D54C	-0.134 ± 0.15
D54H	0.025 ± 0.1
D54A	-0.022 ± 0.069
D54N	-0.033 ± 0.13
D54P	-0.144 ± 0.058
D54L	-0.035 ± 0.058
D54W	-0.041 ± 0.1
D54I	-0.354 ± 0.13
D54R	-0.073 ± 0.063
D54G	0.003 ± 0.061
D54K	0.097 ± 0.17
D54Y	0.008 ± 0.091
D54V	-0.024 ± 0.071
H44T	-0.269 ± 0.47
H44L	-0.008 ± 0.099
H44Y	-0.21 ± 0.27
H44N	0.051 ± 0.16
H44G	-0.099 ± 0.12
H44S	0.016 ± 0.22

Variant	abundance fitness
H44Q	-0.062 ± 0.15
H44P	-0.992 ± 0.46
H44D	-0.935 ± 0.45
H44W	-0.152 ± 0.11
H44R	-0.226 ± 0.12
H44A	0.028 ± 0.12
H44V	0.085 ± 0.098
W50C	-0.053 ± 0.096
W50Y	-0.14 ± 0.24
W50E	-0.316 ± 0.1
W50T	-0.05 ± 0.15
W50A	0.003 ± 0.047
W50D	-0.598 ± 0.19
W50N	-0.041 ± 0.17
W50K	0.063 ± 0.27
W50P	-0.664 ± 0.059
W50R	-0.205 ± 0.064
W50G	-0.28 ± 0.058
W50V	-0.017 ± 0.066
W50M	0.007 ± 0.094
W50L	0.012 ± 0.056
W50S	-0.081 ± 0.06
W50F	-0.086 ± 0.12
W50H	-0.132 ± 0.13

Variant	abundance fitness
W50Q	0.003 ± 0.068
L46G	-0.574 ± 0.1
L46V	-0.075 ± 0.46
L46P	-0.885 ± 0.42
L46T	-0.127 ± 0.2
L46W	0.141 ± 0.48
L46C	0.184 ± 0.37
L46Y	-0.336 ± 0.26
L46A	0.143 ± 0.2
Q42T	-0.538 ± 0.46
Q42C	0.007 ± 0.17
Q42A	-0.068 ± 0.16
Q42W	-0.481 ± 0.27
Q42R	-0.12 ± 0.12
Q42G	-0.323 ± 0.19
Q42P	-0.768 ± 0.41
Q42H	-0.807 ± 0.49
Q42S	0.073 ± 0.13
Q42I	-0.33 ± 0.19
Q42V	-0.204 ± 0.18
A58V	-0.018 ± 0.052
A58N	0.054 ± 0.15
A58E	-0.071 ± 0.088
A58G	-0.03 ± 0.047

Variant	abundance fitness
A58T	-0.098 ± 0.082
A58R	-0.067 ± 0.044
A58I	-0.294 ± 0.12
A58S	-0.193 ± 0.076
A58Y	0.026 ± 0.19
A58L	0.041 ± 0.061
A58F	-0.05 ± 0.073
A58Q	0.039 ± 0.093
A58H	0.156 ± 0.18
A58P	0.027 ± 0.079
A58M	-0.231 ± 0.13
A58C	-0.026 ± 0.13
A58W	-0.167 ± 0.082
S43L	-0.216 ± 0.1
S43R	-0.701 ± 0.24
S43P	-0.32 ± 0.18
S43V	-0.25 ± 0.17
S43Y	-0.508 ± 0.43
S43W	-0.638 ± 0.32
S43M	-1.13 ± 0.43
S43A	-0.281 ± 0.14
S43G	-0.093 ± 0.13
T61V	0.112 ± 0.12
T61L	0.084 ± 0.076

Variant	abundance fitness
T61H	-0.038 ± 0.13
T61I	0.027 ± 0.24
T61F	-0.063 ± 0.18
T61K	-0.286 ± 0.26
T61M	-0.427 ± 0.26
T61G	-0.011 ± 0.079
T61N	-0.244 ± 0.25
T61D	-0.017 ± 0.12
T61E	-0.07 ± 0.13
T61R	-0.118 ± 0.084
T61A	-0.102 ± 0.063
T61Q	-0.093 ± 0.14
T61Y	-0.087 ± 0.14
T61P	0.029 ± 0.06
K56T	-0.01 ± 0.073
K56V	-0.057 ± 0.059
K56S	-0.019 ± 0.061
K56E	0.149 ± 0.12
K56I	-0.084 ± 0.13
K56P	-0.05 ± 0.063
K56L	-0.043 ± 0.054
K56Q	-0.067 ± 0.12
K56D	0.052 ± 0.14
K56F	-0.023 ± 0.094

Variant	abundance fitness
K56H	0.022 ± 0.099
K56C	0.067 ± 0.097
K56R	-0.037 ± 0.045
K56N	-0.071 ± 0.1
K56W	-0.126 ± 0.063
K56Y	-0.13 ± 0.12
K56A	-0.02 ± 0.059
N62Q	-0.082 ± 0.089
N62S	0.007 ± 0.048
N62M	0.018 ± 0.14
N62T	-0.029 ± 0.083
N62R	-0.013 ± 0.05
N62F	-0.181 ± 0.13
N62D	0.051 ± 0.081
N62E	-0.089 ± 0.13
N62G	0.072 ± 0.046
N62P	-0.079 ± 0.054
N62L	0.004 ± 0.047
N62I	-0.169 ± 0.1
N62K	-0.374 ± 0.46
N62A	-0.001 ± 0.053
N62H	0.015 ± 0.11
N62V	0.035 ± 0.056
